From paper PMC12708868

Target: 1G4 TCRαβ with TCRβ T130C/H172C, on J8Zb2m-α-β- reporter T cells (human)

“iTAg tetramer/APC – HLA-A*02:01 NY-ESO-1 (…) (from UniProt P61769 21-119) (peptide-MHC)” was tested, and the peak NFAT reporter response to HLA–antigen tetramers relative to wild type was 50 % reduction.
